The values below come from patent US20200140562A1 (Innovent, published 2020).

The target of test [1] is T1, human OX40_Fc (R&D Systems) (human, UniProt P43489 29-216).
T1 construct: Bought
Put plainly: BLI, hOX40-Fc on tip, Fab 200 nM, monovalent.

The target of test [2] is T2, human OX40 on cells (CHO-hOX40, 293HEK-hOX40, Jurkat-hOX40, activated primary CD4+ T cells) (human, UniProt P43489 29-277).
T2 construct: whole, on cells; The cell type is told in each assay; also called CHO-OX40
T2 sequence (looked up): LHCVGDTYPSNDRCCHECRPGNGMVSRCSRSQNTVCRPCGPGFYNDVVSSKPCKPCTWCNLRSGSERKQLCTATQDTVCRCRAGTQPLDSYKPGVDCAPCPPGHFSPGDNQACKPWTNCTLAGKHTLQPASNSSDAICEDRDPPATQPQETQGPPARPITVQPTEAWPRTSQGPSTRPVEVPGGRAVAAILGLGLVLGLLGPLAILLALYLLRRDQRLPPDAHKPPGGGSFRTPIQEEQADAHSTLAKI
Put plainly: flow cytometry, MFI on CHO-hOX40 over wild-type CHO.

For test [3], the target named is T2, human OX40 on cells (CHO-hOX40, …). Put plainly: flow cytometry, CHO-hOX40, 100 nM. For orientation: In flow cytometry, cells or beads pass a laser one at a time.
Test [4] addresses T3, cyno OX40_Fc (Acro Biosystems) (cyno).
T3 construct: Bought
The experiment in a line: BLI, IgG1 on tip, cyno OX40-Fc 100 nM, avid. A general note: BLI is a label-free optical method that tracks binding on a fibre tip over time.

In test [5] the target is T1, human OX40_Fc (R&D Systems). The experiment in a line: BLI, IgG1 on tip, hOX40-Fc 50 nM, avid.
Test [6] has the same target. Put plainly: BLI, hOX40-Fc on tip, Fab 200 nM, monovalent. This is another data set of the same source.
The target of test [7] is T4, Human biotinylated OX40-His monomer (human, UniProt P43489 29-216, limits assumed, biotinylated).
T4 construct: Bought from Acro Biosystems; also called biotin-OX-40 monomer; not shown: His tag
T4 sequence (looked up): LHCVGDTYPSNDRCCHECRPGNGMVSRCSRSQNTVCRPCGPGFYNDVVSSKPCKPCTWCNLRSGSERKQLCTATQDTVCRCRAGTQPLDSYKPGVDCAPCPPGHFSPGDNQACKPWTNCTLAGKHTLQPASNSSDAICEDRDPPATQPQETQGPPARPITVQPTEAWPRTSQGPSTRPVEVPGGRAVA
Put plainly: MSD-SET, biotinylated OX40-His monomer with Fab.

B1: ADI-20051, Fab (Fab, V domains shown)
VH: QVQLQQWGAGLLKPSETLSLTCAVYGGSFSGYYWSWIRQPPGKGLEWIGEIDHSGSTNYNPSLKSRVTISVDTSKNQFSLKLSSVTAADTAVYYCARDGGGGYASPFDYWGQGTLVTVSS
VL: EIVMTQSPATLSVSPGERATLSCRASQSVSSNLAWYQQKPGQAPRLLIYGASTRATGIPARFSGSGSGTEFTLTISSLQSEDFAVYYCQQYHAWPPTFGGGTKVEIKR
Turning to B1, binding in test [1] was put at a Kd of 25.8 nM.

B2: ADI-23518, IgG1 format (antibody, V domains shown)
VH: QVQLQESGPGLVKPSQTLSLTCTVSGGSISSGASYWSWIRQHPGKGLEWIGYIYYSGETYYNPSLKSRVTISVDTSKNQFSLKLSSVTAADTAVYYCARDVGYPHYYGMDVWGQGTTVTVSS
VL: EIVLTQSPGTLSLSPGERATLSCRASQSVSSSYLAWYQQKPGQAPRLLIYGASSRATGIPDRFSGSGSGTDFTLTISRLEPEDFAVYYCQQSERSPFTFGGGTKVEIKR
notes: Made in yeast
Consider B2, for which the Fold difference in test [2] was determined as 1480 fold. Moreover, the “CHO-OX40 binding intensity (MFI)” value in test [3] turned out to be 173000 MFI. Besides, the Kd (usually the constant that tells how readily two partners part at equilibrium) turned out to be 1.08 nM in test [4] and 0.297 nM in test [5].

B3: ADI-23518, Fab (Fab, V domains shown)
VH: QVQLQESGPGLVKPSQTLSLTCTVSGGSISSGASYWSWIRQHPGKGLEWIGYIYYSGETYYNPSLKSRVTISVDTSKNQFSLKLSSVTAADTAVYYCARDVGYPHYYGMDVWGQGTTVTVSS
VL: EIVLTQSPGTLSLSPGERATLSCRASQSVSSSYLAWYQQKPGQAPRLLIYGASSRATGIPDRFSGSGSGTDFTLTISRLEPEDFAVYYCQQSERSPFTFGGGTKVEIKR
Regarding B3, the Kd in test [6] was 7.16 nM.

B4: ADI-20066, Fab (Fab, V domains shown)
VH: QLQLQESGPGLVKPSETLSLTCTVSGGSISSSSYYWGWIRQPPGKGLEWIGSIYYSGSTYYNPSLKSRVTISVDTSKNQFSLKLSSVTAADTAVYYCARDPGYSASPNWFDPWGQGTLVTVSS
VL: EIVLTQSPGTLSLSPGERATLSCRASQSVSSSFLAWYQQKPGQAPRLLIYGASSRATGIPDRFSGSGSGTDFTLTISRLEPEDFAVYYCQQYDVFPITFGGGTKVEIKR
The molecule B4 yielded a Kd in test [1] of 21.8 nM.

B5: ADI-23519, Fab (Fab, V domains shown)
VH: QVQLQESGPGLVKPSQTLSLTCTVSGGSISSGSSYWSWIRQHPGKGLEWIGYIYMSGETYYNPSLKSRVTISVDTSKNQFSLKLSSVTAADTAVYYCARDVGYPHYYGMDVWGQGTTVTVSS
VL: EIVLTQSPGTLSLSPGERATLSCRASQSVSSSYLAWYQQKPGQAPRLLIYGASSRATGIPDRFSGSGSGTDFTLTISRLEPEDFAVYYCQQSERSPFTFGGGTKVEIKR
For B5, the Kd in test [6] was 5.36 nM.

B6: ADI-23515, Fab (Fab, V domains shown)
VH: QVQLQESGPGLVKPSQTLSLTCTVSGGSIRSGAYYWSWIRQHPGKGLEWIGYIYYDGQTYYNPSLKSRVTISVDTSKNQFSLKLSSVTAADTAVYYCARDVGYPHYYGMDVWGQGTTVTVSS
VL: EIVLTQSPGTLSLSPGERATLSCRASQSVSSSYLAWYQQKPGQAPRLLIYGASSRATGIPDRFSGSGSGTDFTLTISRLEPEDFAVYYCQQSERSPFTFGGGTKVEIKR
Take B6: the results for the Kd in test [6] and in test [7] were 3.79 nM and 0.16 nM, respectively.

B7: ADI-23519, IgG1 format (antibody, V domains shown)
VH: QVQLQESGPGLVKPSQTLSLTCTVSGGSISSGSSYWSWIRQHPGKGLEWIGYIYMSGETYYNPSLKSRVTISVDTSKNQFSLKLSSVTAADTAVYYCARDVGYPHYYGMDVWGQGTTVTVSS
VL: EIVLTQSPGTLSLSPGERATLSCRASQSVSSSYLAWYQQKPGQAPRLLIYGASSRATGIPDRFSGSGSGTDFTLTISRLEPEDFAVYYCQQSERSPFTFGGGTKVEIKR
notes: Made in yeast
Regarding B7, the Kd in test [4] worked out at 1.1 nM; in test [5], 0.255 nM.

B8: ADI-20065, Fab (Fab, V domains shown)
VH: QLQLQESGPGLVKPSETLSLTCTVSGGSISSSSYYWGWIRQPPGKGLEWIGSIYYSGSTYYNPSLKSRVTISVDTSKNQFSLKLSSVTAADTAVYYCARDPGYSASPNWFDPWGQGTLVTVSS
VL: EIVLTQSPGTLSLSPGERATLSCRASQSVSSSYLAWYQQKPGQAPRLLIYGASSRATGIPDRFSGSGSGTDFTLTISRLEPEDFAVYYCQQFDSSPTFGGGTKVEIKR
For B8, binding in test [1] was characterised by a dissociation constant (Kd) of 10.8 nM.

B9: ADI-20118, Fab (Fab, V domains shown)
VH: QVQLVQSGAEVKKPGASVKVSCKASGYTFTSYAISWVRQAPGQGLEWMGWISAYNGNTNYAQKLQGRVTMTTDTSTSTAYMELRSLRSDDTAVYYCARSGGGSGPNWFDPWGQGTLVTVSS
VL: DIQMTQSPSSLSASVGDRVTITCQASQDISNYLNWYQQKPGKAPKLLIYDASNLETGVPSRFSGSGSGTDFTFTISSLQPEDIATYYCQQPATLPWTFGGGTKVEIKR
In turn, B9 showed a Kd in test [1] of 137 nM.

B10: ADI-25653, Fab (Fab, V domains shown)
VH: QVQLVESGGGVVQPGRSLRLSCAASGFTFVSYNMHWVRQAPGKGLEWVAVIMYDGSAKYYADSVKGRFTISRDNSKNTLYLQMNSLRAEDTAVYYCARGRPWYSETGTSAFDIWGQGTMVTVSS
VL: DIQMTQSPSSLSASVGDRVTITCQASQDISNYLNWYQQKPGKAPKLLIYDASNLETGVPSRFSGSGSGTDFTFTISSLQPEDIATYYCQQSDHYPTFGGGTKVEIKR
Consider B10, for which the Kd in test [6] came out at 1.63 nM; in test [7], 0.086 nM.

B11: ADI-25652, Fab (Fab, V domains shown)
VH: QVQLVESGGGVVQPGRSLRLSCAASGFTFVSYNMHWVRQAPGKGLEWVAVIAYDGSVKYYADSVKGRFTISRDNSKNTLYLQMNSLRAEDTAVYYCARGRPWYSETGTSAFDIWGQGTMVTVSS
VL: DIQMTQSPSSLSASVGDRVTITCQASQDISNYLNWYQQKPGKAPKLLIYDASNLETGVPSRFSGSGSGTDFTFTISSLQPEDIATYYCQQSDHYPTFGGGTKVEIKR
On to B11, for which the Kd in test [6] turned out to be 1.31 nM; in test [7], 0.15 nM.

B12: ADI-25651, Fab (Fab, V domains shown)
VH: QVQLVESGGGVVQPGRSLRLSCAASGFTFSSRNMHWVRQAPGKGLEWVAVIAYDGSLKYYADSVKGRFTISRDNSKNTLYLQMNSLRAEDTAVYYCARGRPWYSETGTSAFDIWGQGTMVTVSS
VL: DIQMTQSPSSLSASVGDRVTITCQASQDISNYLNWYQQKPGKAPKLLIYDASNLETGVPSRFSGSGSGTDFTFTISSLQPEDIATYYCQQSDHYPTFGGGTKVEIKR
Turning to B12, the dissociation constant Kd in test [6] was determined as 2.32 nM; in test [7] it was 0.17 nM.

B13: ADI-25654, Fab (Fab, V domains shown)
VH: QVQLVESGGGVVQPGRSLRLSCAASGFTFRSYDMHWVRQAPGKGLEWVAYIAYDGSNKYYADSVKGRFTISRDNSKNTLYLQMNSLRAEDTAVYYCARGRPWYSETGTSAFDIWGQGTMVTVSS
VL: DIQMTQSPSSLSASVGDRVTITCQASQDISNYLNWYQQKPGKAPKLLIYDASNLETGVPSRFSGSGSGTDFTFTISSLQPEDIATYYCQQSDHYPTFGGGTKVEIKR
B13: the results for the Kd in test [6] and in test [7] were 1.8 nM and 0.18 nM, respectively.

B14: ADI-20113, Fab (Fab, V domains shown)
VH: QVQLVESGGGVVQPGRSLRLSCAASGFTFSSYGMHWVRQAPGKGLEWVAVISYDGSNKYYADSVKGRFTISRDNSKNTLYLQMNSLRAEDTAVYYCARGRPWYSETGTSAFDIWGQGTMVTVSS
VL: EIVMTQSPATLSVSPGERATLSCRASQSVSSNLAWYQQKPGQAPRLLIYSASTRATGIPARFSGSGSGTEFTLTISSLQSEDFAVYYCQQHNVYPPYTFGGGTKVEIKR
With B14, binding in test [1] was characterised by a dissociation constant (Kd) of 182 nM.

B15: ADI-25650, Fab (Fab, V domains shown)
VH: QVQLVESGGGVVQPGRSLRLSCAASGFTFSVYNMHWVRQAPGKGLEWVAVIAYDGSAKYYADSVKGRFTISRDNSKNTLYLQMNSLRAEDTAVYYCARGRPWYSETGTSAFDIWGQGTMVTVSS
VL: DIQMTQSPSSLSASVGDRVTITCQASQDISNYLNWYQQKPGKAPKLLIYDASNLETGVPSRFSGSGSGTDFTFTISSLQPEDIATYYCQQSDHYPTFGGGTKVEIKR
With B15, the Kd in test [6] was 1.04 nM; in test [7], 0.14 nM.
